In one data set the test system is Lamin. The experiment in a line: Two-hybrid β-galactosidase expression filter assay in SFY526 yeast, DNA-binding domain hybrid Lamin. To be noted: specificity test. From the text: (§1) To isolate proteins interacting with the intracellular domain of the FAS-R, the yeast two-hybrid system was used (Fields and Song, 1989). […] In this system, the genes for the candidate interacting proteins are cloned into separate expression vectors. In one expression vector, the sequence of the one candidate protein is cloned in phase with the sequence of the GAL4 DNA-binding domain to generate a hybrid protein with the GAL4 DNA-binding-domain, and in the other vector, the sequence of the second candidate protein is cloned in phase with the sequence of the GAL4 activation domain to generate a hybrid protein with the GAL4-activation domain. The two hybrid vectors are then co-transformed into a yeast host strain having a lacZ or HIS3 reporter gene under the control of upstream GAL4 binding sites. […]
(§2) The yeast two-hybrid test was further applied to evaluate the specificity of binding of MACH to MORT-1, in particular, to define the region in MORT-1 to which MACH binds, as well as to determine which of the MACH ORFs interacts with MORT-1, the procedures being as set forth herein above in Examples 1 and 2. Briefly, various MORT-1 and MACH constructs were prepared for testing the interaction of the proteins encoded by the Gal4 DNA-binding domain and activation domain constructs within transfected SFY526 yeast cells as assessed by the β-galactosidase expression filter assay. […]

In a further data set the target is T1, human CD40 IC (Homo sapiens, UniProt P25942).
T1 construct: residues 216-277 of the intracellular domain of the human CD40; expressed in transfected cells; host or cells: SFY526 yeast
T1 sequence (P25942 216-277): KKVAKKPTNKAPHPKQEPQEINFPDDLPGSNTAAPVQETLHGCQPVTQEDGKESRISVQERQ
The experiment in a line: Two-hybrid β-galactosidase expression filter assay in SFY526 yeast, DNA-binding domain hybrid human CD40 IC. To be noted: specificity test.
Description: as §1, §2

In another data set the target is T2, MORT1DD (130-245) (Homo sapiens, UniProt Q13158).
T2 construct: 130-245 MORT-1; expressed in transfected cells
T2 sequence (Q13158 82-197): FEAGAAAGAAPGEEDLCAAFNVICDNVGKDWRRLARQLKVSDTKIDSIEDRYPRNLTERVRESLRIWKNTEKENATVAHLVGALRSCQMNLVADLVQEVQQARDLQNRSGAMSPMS
The experiment in a line: Two-hybrid β-galactosidase expression filter assay in SFY526 yeast, DNA-binding domain hybrid MORT1DD (130-245).
Description: as §1, §2

In another data set the test system is HeLa cells. The experiment in a line: Ligand-independent cytocidal effect of MACH expression in HeLa cells, neutral red uptake. The class given is cell-based, human. The following applies: 48 hrs. after transfection, FIG. 6. On the procedure: In order to test this possibility, constructs encoding MACH were prepared with a tetracycline-controlled expression vector (for details see Example 1). These constructs were used to transfect HeLa cells in which the vectors were transiently expressed. Besides the MACH constructs, other control constructs were used to evaluate the effect of transient expression on the viability of the HeLa cells to which the effect of the MACH constructs could be compared. These other constructs included MORT-1, human FAS-IC and luciferase (Luc). In addition, co-transfection of the HeLa cells was also tested by using MORT-1 and MACH constructs to determine what effects the interaction between these proteins would cause. After transfection the HeLa cells were incubated and cell viability was evaluated 48 hrs. after transfection either in the presence or the absence of tetracycline (1 μg/ml) to block expression. Cell viability was determined by the neutral red uptake assay.
The results are shown in FIG. 6, which depicts graphically the ligand-independent triggering of cytocidal effects in cells transfected with MACH in comparison to cells transfected with constructs encoding the other proteins as well as cotransfected cells (MORT1+MACH). […]

A further data set has as its target T3, human FAS DD (Homo sapiens, UniProt P25445).
T3 construct: the ‘death domain’ region of the intracellular domain of the human Fas-R (human Fas DD); expressed in transfected cells; host or cells: SFY526 yeast
T3 sequence (P25445 230-314 limits assumed): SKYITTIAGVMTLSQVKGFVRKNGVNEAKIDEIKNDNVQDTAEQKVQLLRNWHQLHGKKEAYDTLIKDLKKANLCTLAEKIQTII
The experiment in a line: Two-hybrid β-galactosidase expression filter assay in SFY526 yeast, DNA-binding domain hybrid human FAS DD. The following applies: specificity test.
Description: as §1, §2

A further data set has as its target T4, MORT-1 (Homo sapiens, UniProt Q13158, G32V).
T4 sequence (Q13158 with tags, fused parts or gaps G32V): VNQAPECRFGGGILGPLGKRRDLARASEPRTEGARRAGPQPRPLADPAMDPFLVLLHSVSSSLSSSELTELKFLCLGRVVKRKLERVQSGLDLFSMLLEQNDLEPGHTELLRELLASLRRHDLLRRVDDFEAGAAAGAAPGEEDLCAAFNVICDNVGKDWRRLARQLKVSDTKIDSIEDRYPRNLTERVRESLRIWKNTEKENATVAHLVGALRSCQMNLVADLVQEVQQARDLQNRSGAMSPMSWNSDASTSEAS
The experiment in a line: Two-hybrid β-galactosidase expression filter assay in SFY526 yeast, DNA-binding domain hybrid MORT-1. Also noted: the full-length MORT-1 cDNA was used (MORT 1); expressed in transfected cells; host or cells: SFY526 yeast. The following applies: substance as activation domain hybrid.
Description: as §1, with “sites. Only those transformed host cells (cotransformants) in which the two hybrid proteins are expressed and are capable of interacting with each other, will be capable of expressing the reporter gene.” for “sites.”
The yeast two-hybrid test was further applied to evaluate the specificity of binding of MACH to MORT-1, in particular, to define the region in MORT-1 to which MACH binds, as well as to determine which of the MACH ORFs interacts with MORT-1, the procedures being as set forth herein above in Examples 1 and 2. Briefly, various MORT-1 and MACH constructs were prepared for testing the interaction of the proteins encoded by the Gal4 DNA-binding domain and activation domain constructs within transfected SFY526 yeast cells as assessed by the β-galactosidase expression filter assay. […] In the assay, the development of color was determined, where the greater the color development, the greater the interaction between the constructs encoded by the DNA-binding domain and activation domain; Color development was depicted by symbols, where “+++” and “+” indicate the development of a strong color within 30 and 90 min. of the assay, respectively, and “−−−” indicates the lack of development of color within 24 hrs. of the assay. […]

Data set [1] can be described thus: Two-hybrid β-galactosidase expression filter assay in SFY526 yeast, empty pGBT9 vector. To be noted: negative control bait. It is filed as binding.
Description: as §1, §2

The target of another data set is T5, human p75 IC (Homo sapiens, UniProt P20333).
T5 construct: residues 287-461 of the intracellular domain of the human p75 TNF-R; expressed in transfected cells; host or cells: SFY526 yeast
T5 sequence (P20333 287-461): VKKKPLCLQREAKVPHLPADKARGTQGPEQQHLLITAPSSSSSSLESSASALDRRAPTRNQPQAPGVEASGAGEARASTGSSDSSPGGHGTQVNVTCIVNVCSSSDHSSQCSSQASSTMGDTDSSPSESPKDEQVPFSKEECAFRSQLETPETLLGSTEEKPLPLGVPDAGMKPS
The experiment in a line: Two-hybrid β-galactosidase expression filter assay in SFY526 yeast, DNA-binding domain hybrid human p75 IC. The following applies: specificity test.
Description: as §1, §2

B1: MACH: MORT-1 associated CED3 homolog; full-length MACH cDNA construct; protein later renamed MACHβ1 (protein)
chain: MDFSRNLYDIGEQLDSEDLASLKFLSLDYIPQRKQEPIKDALMLFQRLQEKRMLEESNLSFLKELLFRINRLDLLITYLNTRKEEMERELQTPGRAQISAYRVMLYQISEEVSRSELRSFKFLLQEEISKCKLDDDMNLLDIFIEMEKRVILGEGKLDILKRVCAQINKSLLKIINDYEEFSKERSSSLEGSPDEFSNDFGQSLPNEKQTSGILSDHQQSQFCKSTGESAQTSQH
On to B1, for which the “development of color (interaction with DNA-binding domain hybrid)” value in the data set on Lamin was “−−− (“−−−” indicates the lack of development of color within 24 hrs. of the assay)”; with human CD40 IC it was “−−− (“−−−” indicates the lack of development of color within 24 hrs. of the assay)”; in the data set with MORT1DD (130-245) it was “−−− (“−−−” indicates the lack of development of color within 24 hrs. of the assay)”; with human FAS DD, “−−− (“−−−” indicates the lack of development of color within 24 hrs. of the assay)”; with MORT-1 it was “+++ (“+++” and “+” indicate the development of a strong color within 30 and 90 min. of the assay, respectively)”; in data set [1], “−−− (“−−−” indicates the lack of development of color within 24 hrs. of the assay)”. Also, in the data set with human p75 IC, the “development of color (interaction with DNA-binding domain hybrid)” value is on record as “−−− (“−−−” indicates the lack of development of color within 24 hrs. of the assay)”. Also, the “cytotoxic effect of induced overexpression in HeLa cells” value in the data set with HeLa cells is on record as “dramatic cytotoxic effect”.
